Results on nine molecules are retold here after patent US20230192896A1 (published 2023).

In general, Kd refers to the constant that tells how readily two partners part at equilibrium.

Sequences and labels used below:
B1: BIIB-9-1265 (antibody, V domains shown)
VH: QLQLQESGPGLVKPSETLSLTCTVSGGSISSSSYYWGWIRQPPGKGLEWIGSIYYSGSTYYNPSLKSRVTISVDTSKNQFSLKLSSVTAADTAVYYCARDGRHYYELFDYWGQGTLVTVSS
VL: DIQMTQSPSSVSASVGDRVTITCRASQGISSWLAWYQQKPGKAPKLLIYAASSLQSGVPSRFSGSGSGTDFTLTISSLQPEDFATYYCQQGNSFPITFGGGTKVEIK
B2: BIIB-9-1286 (antibody, V domains shown)
VH: QVQLVQSGAEVKKPGASVKVSCKASGYTFTSYYMVWVRQAPGQGLEWMGIINPSGGSTSYAQKFQGRVTMTRDTSTSTVYMELSSLRSEDTAVYYCARVPTYRYSYLAFDIWGQGTMVTVSS
VL: DIQMTQSPSSVSASVGDRVTITCRASQGISSWLAWYQQKPGKAPKLLIYAASSLQSGVPSRFSGSGSGTDFTLTISSLQPEDFVTYYCQQASSFPPTFGGGTKVEIK
B3: BIIB-9-626 (antibody, V domains shown)
VH: QVQLVQSGAEVKKPGASVKVSCKASGYTFTSYYMHWVRQAPGQGLEWMGVINPSGGSTSYAQKFQGRVTMTRDTSTSTVYMELSSLRSEDTAVYYCARDLQYSMTYFDYWGQGTLVTVSS
VL: DIQMTQSPSTLSASVGDRVTITCRASQSISSWLAWYQQKPGKAPKLLIYKASSLESGVPSRFSGSGSGTEFTLTISSLQPDDFATYYCQQDGSYPPLTFGGGTKVEIK
B4: BIIB-9-567 (antibody, V domains shown)
VH: QVQLVQSGAEVKKPGASVKVSCKASGYTFTSYYMHWVRQAPGQGLEWMGIINPSGGSTSYAQKFQGRVTMTRDTSTSTVYMELSSLRSEDTAVYYCARLGRRYYAYDGMDVWGQGTTVTVSS
VL: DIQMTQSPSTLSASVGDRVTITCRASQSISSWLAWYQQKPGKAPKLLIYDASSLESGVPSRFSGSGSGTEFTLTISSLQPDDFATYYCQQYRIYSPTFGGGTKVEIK
B5: BIIB-9-1287 (antibody, V domains shown)
VH: QLQLQESGPGLVKPSETLSLTCTVSGGSISSSDYYWGWIRQPPGKGLEWIGSIYYSGSTYYNPSLKSRVTISVDTSKNQFSLKLSSVTAADTAVYYCARSPRHKVRGPNWFDPWGQGTLVTVSS
VL: EIVLTQSPGTLSLSPGERATLSCRASQSVSSSYLAWYQQKPGQAPRLLIYGASSRATGIPDRFSGSGSGTDFTLTISRLEPEDFAVYYCQQYHLHPTFGGGTKVEIK
B6: BIIB-9-408 (antibody, V domains shown)
VH: QVQLVQSGAEVKKPGASVKVSCKASGYTFTSYYMHWVRQAPGQGLEWMGIINPSGGSTTYAQKFQGRVTMTRDTSTSTVYMELSSLRSEDTAVYYCARDPGAYDDWSGYDDYGMDVWGQGTTVTVSS
VL: EIVLTQSPATLSLSPGERATLSCRASQSVSSYLAWYQQKPGQAPRLLIYDASNRATGIPARFSGSGSGTDFTLTISSLEPEDFAVYYCQQAFVWPPITFGGGTKVEIK
B7: BIIB-9-565 (antibody, V domains shown)
VH: QLQLQESGPGLVKPSETLSLTCTVSGGSISSSSYYWGWIRQPPGKGLEWIGSIYYSGSTYYNPSLKSRVTISVDTSKNQFSLKLSSVTAADTAVYYCARAGMYSSYANWFDPWGQGTLVTVSS
VL: EIVLTQSPATLSLSPGERATLSCRASQSVSSYLAWYQQKPGQAPRLLIYDASNRATGIPARFSGSGSGTDFTLTISSLEPEDFAVYYCQQDSNLPFTFGGGTKVEIK
B8: BIIB-9-1266 (antibody, V domains shown)
VH: QVQLVQSGAEVKKPGASVKVSCKASGYTFTSYYMHWVRQAPGQGLEWMGIINPSGGSTSYAQKFQGRVTMTRDTSTSTVYMELSSLRSEDTAVYYCARDHGWAIYGMDVWGQGTTVTVSS
VL: EIVMTQSPATLSLSPGERATLSCRASQSVSSYLAWYQQKPGQAPRLLIYDSSNRATGIPARFSGSGSGTDFTLTISSLEPEDFAVYYCQQRLNFPFTFGGGTKVEIK
B9: BIIB-9-1277 (antibody, V domains shown)
VH: QVQLVQSGAEVKKPGASVKVSCKASGYTFTSYYMHWVRQAPGQGLEWMGIINPSGGSTSYAQKFQGRVTMTRDTSTSTVYMELSSLRSEDTAVYYCARGGTGYYYGSGSRDGYHYYYGMDVWGQGTTVTVSS
VL: EIVMTQSPATLSVSPGERATLSCRASQSVSSYLAWYQQKPGQAPRLLIYDASNRATGIPARFSGSGSGTDFTLTISSLEPEDLAVYYCQQSANWPPTFGGGTKVEIK

The assay has as its target free FIXa (activated Factor IX) (UniProt P00740 47-191; P00740 227-461). The assay can be described thus: BLI. On the technique in general: In BLI a coated tip is dipped into the sample, and binding shifts an interference pattern.
Take B1: the affinity, expressed as Kd, was 59.8 nM.

As for B2, binding was put at a Kd of 31.8 nM.

B3 yielded a Kd of 166 nM.

B4 returned a Kd of 20.6 nM. B5 displayed a Kd of 0.669 nM. On to B6, for which the Kd came to 1.36 nM.

The molecule B7 yielded an equilibrium dissociation constant (Kd) of 15.8 nM. On to B8, for which the Kd came to 42.6 nM. In turn, B9 yielded a Kd of 58.8 nM.
